Molecular target: actin (coated on the BLI biosensor)
Assay: BLI; APS biosensor coated with actin; rTLP-1 in PBS pH 7.4 with 0.05% Tween 20 and 0.1% BSA; Octet RED, 25 °C; 300 s association, 120 s dissociation; n = 3

Kd: 9.45 µM
Substance: Recombinant transgelin‐like protein 1 (rTLP‐1) from Mytilus coruscus (natural protein)

— publication PMC7530383
